substance,measurement,setting,value
purified p38 proteins activated by incubation with active Zap70,"phosphorylation of ATF2 (in vitro kinase assay, [32P]ATP, phosphorimager)",(11R)-Ctrl,"incubation with (11R)-71-85, but not (11R)-Ctrl, led to a decrease in phosphorylation of ATF2"
same,"phosphorylation of ATF2 (in vitro kinase assay, [32P]ATP, phosphorimager)",(11R)-71-85,"incubation with (11R)-71-85, but not (11R)-Ctrl, led to a decrease in phosphorylation of ATF2. In addition, the decrease in ATF2 phosphorylation was dependent on the dose of (11R)-71-85"

# Reference: US20160083442
